Measured values: patent US20030171565

T1: protein zero related (PZR), tyrosine-phosphorylated
T1 chain: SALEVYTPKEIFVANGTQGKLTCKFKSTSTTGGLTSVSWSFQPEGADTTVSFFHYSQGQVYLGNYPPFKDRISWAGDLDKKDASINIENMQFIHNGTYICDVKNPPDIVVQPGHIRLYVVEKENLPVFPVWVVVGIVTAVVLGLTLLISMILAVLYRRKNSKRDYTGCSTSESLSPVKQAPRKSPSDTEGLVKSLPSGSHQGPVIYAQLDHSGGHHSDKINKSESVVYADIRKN


Target: T1, protein zero related (PZR), …

Protein	dephosphorylation of purified p43 in vitro (anti-phosphotyrosine Western blot)	in vitro dephosphorylation of immuno-purified tyrosine-phosphorylated PZR	in vitro dephosphorylation of immuno-purified tyrosine-phosphorylated PZR (anti-phosphotyrosine Western blot)
tyrosine phosphatase SHP-2, native full-length form (protein) TSRRWFHPNITGVEAENLLLTRGVDGSFLARPSKSNPGDFTLSVRRNGAVTHIKIQNTGDYYDLYGGEKFATLAELVQYYMEHHGQLKEKNGDVIELKYPLNCADPTSERWFHGHLSGKEAEKLLTEKGKHGSFLVRESQSHPGDFVLSVRTGDDKGESNDGKSKVTHVMIRCQELKYDVGGGERFDSLTDLVEHYKKNPMVETLGTVLQLKQPLNTTRINAAEIESRVRELSKLAETTDKVKQGFWEEFETLQQQECKLLYSRKEGQRQENKNKNRYKNILPFDHTRVVLHDGDPNEPVSDYINANIIMPEFETKCNNSKPKKSYIATQGCLQNTVNDFWRMVFQENSRVIVMTTKEVERGKSKCVKYWPDEYALKEYGVMRVRNVKESAAHDYTLRELKLSKVGQGNTERTVWQYHFRTWPDHGVPSDPGGVLDFLEEVHHKQESIMDAGPVVVHCSAGIGRTGTFIVIDILIDIIREKGVDCDIDVPKTIQMVRSQRSGMVQTEAQYRFIYMAVQHYIETLQRRIEEEQKSKRKGHEYTNIKYSLADQTSGDQSPLPPCTPTPPCAEMREDSARVYENVGLMQQQKSFR	SHP-2 caused complete dephosphorylation of p43	higher concentrations of SHP-2 (up to 5 µg/ml) helped to push the dephosphorylation to near completion	full length SHP-2 caused rapid dephosphorylation
SH2 domain-truncated form of SHP-2 (protein) NPMVETLGTVLQLKQPLNTTRINAAEIESRVRELSKLAETTDKVKQGFWEEFETLQQQECKLLYSRKEGQRQENKNKNRYKNILPFDHTRVVLHDGDPNEPVSDYINANIIMPEFETKCNNSKPKKSYIATQGCLQNTVNDFWRMVFQENSRVIVMTTKEVERGKSKCVKYWPDEYALKEYGVMRVRNVKESAAHDYTLRELKLSKVGQGNTERTVWQYHFRTWPDHGVPSDPGGVLDFLEEVHHKQESIMDAGPVVVHCSAGIGRTGTFIVIDILIDIIREKGVDCDIDVPKTIQMVRSQRSGMVQTEAQYRFIYMAVQHYIETLQRRIEEEQKSKRKGHEYTNIKYSLADQTSGDQSPLPPCTPTPPCAEMREDSARVYENVGLMQQQKSFR			the truncated enzyme had essentially no effect
